Data on one molecule can be found in patent US20200157519A1 (IMMUNWORK, published 2020).

In assay [1] the target is T1, human fibrin (human fibrinogen coated on the plate and treated with thrombin) (human, UniProt P02671 36-629; P02675 45-491; P02679 27-437).
T1 construct: Made on the plate: coated human fibrinogen (Sigma) treated with 1.0 U/mL thrombin, CaCl2 and L-cysteine
T1 sequence (looked up) 1: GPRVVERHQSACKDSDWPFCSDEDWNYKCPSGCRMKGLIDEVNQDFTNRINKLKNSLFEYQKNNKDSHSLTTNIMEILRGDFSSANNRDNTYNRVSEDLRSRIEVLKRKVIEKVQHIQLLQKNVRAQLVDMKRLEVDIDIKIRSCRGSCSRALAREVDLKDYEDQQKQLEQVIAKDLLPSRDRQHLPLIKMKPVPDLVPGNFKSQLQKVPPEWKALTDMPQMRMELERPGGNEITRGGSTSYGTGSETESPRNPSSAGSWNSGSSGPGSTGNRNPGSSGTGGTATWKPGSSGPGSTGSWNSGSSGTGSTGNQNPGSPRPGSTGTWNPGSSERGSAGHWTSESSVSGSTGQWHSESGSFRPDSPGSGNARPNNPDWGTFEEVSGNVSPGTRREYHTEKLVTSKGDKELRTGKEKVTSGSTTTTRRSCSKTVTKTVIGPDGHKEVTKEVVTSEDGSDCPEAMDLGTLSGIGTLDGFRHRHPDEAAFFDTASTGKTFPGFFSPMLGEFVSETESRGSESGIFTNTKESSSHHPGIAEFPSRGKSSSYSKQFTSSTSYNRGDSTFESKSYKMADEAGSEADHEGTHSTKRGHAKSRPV
T1 sequence (looked up) 2: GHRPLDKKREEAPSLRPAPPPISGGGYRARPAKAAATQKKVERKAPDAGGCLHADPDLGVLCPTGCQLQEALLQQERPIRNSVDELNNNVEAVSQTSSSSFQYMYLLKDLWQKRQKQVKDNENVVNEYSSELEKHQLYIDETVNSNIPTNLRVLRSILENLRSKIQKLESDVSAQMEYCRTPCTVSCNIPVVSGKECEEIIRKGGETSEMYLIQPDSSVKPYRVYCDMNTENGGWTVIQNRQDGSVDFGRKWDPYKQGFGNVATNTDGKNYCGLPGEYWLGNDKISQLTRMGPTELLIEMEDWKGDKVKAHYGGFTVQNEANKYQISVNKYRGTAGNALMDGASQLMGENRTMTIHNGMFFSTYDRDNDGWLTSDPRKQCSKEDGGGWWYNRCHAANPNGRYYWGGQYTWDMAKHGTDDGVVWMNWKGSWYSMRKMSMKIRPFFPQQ
T1 sequence (looked up) 3: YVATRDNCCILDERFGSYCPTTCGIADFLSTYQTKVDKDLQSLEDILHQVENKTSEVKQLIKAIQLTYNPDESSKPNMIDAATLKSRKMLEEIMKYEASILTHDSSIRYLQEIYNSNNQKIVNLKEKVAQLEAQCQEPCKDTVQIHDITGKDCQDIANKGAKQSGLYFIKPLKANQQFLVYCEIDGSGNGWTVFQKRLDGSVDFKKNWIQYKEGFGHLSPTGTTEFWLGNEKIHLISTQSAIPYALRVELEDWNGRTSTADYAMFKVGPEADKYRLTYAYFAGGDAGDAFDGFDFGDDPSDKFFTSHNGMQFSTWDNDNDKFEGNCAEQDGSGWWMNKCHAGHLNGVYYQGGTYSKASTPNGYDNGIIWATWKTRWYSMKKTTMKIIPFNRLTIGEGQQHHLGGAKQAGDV
Kind of assay: ELISA after storage at 4 C for 3 or 6 days, HRP-protein L. Here is the method:
(§1) To evaluate the stability of reteplase-(3D5 scFv) after storage, the reteplase-(3D5 scFv) was stored at 4° C. for 3, 6 and 30 days, and then SDS-PAGE and ELISA analysis were performed.
(§2) 96-well polystyrene microplates were coated with human fibrinogen (Sigma) (20 μg/mL) in PBS buffer (100 μL/well). After overnight incubation at 4° C., the coated wells were washed with PBS buffer. To induce the cross-linking of human fibrin, coated wells was incubated at 37° C. for 1 hour with human α-thrombin (Sigma) at a final concentration of 1 U/mL in TBS buffer with 2 mM CaCl₂ and 7 mM L-cystine (Merck). After blocking the wells with a blocking buffer (5% non-fat dry milk/PBS), 100 μL of reteplase-(3D5-scFv) at a final concentration of 0.1, 1 and 10 μg/mL were added to each well and incubate at room temperature for 1 hour. Thereafter, the plates were washed three times, and HRP-conjugated protein L diluted to 1/5000 was added to the wells and incubated for 1 hour at room temperature. The wells were washed three times and added with 100 μL of 3,3′,5,5′-Tetramethylbenzidine (TMB) substrate buffer. 5 minutes later, the color development was stopped with 1 M HCl. The optical density (OD) was measured at 450 nm using a microplate reader (Molecular Devices) and the data were processed using Graph Pad Prism software. […]
Background: ELISA stands for enzyme-linked immunosorbent assay.

For assay [2], the target named is T2, crosslinked human fibrin treated by human factor XIIIa (human, UniProt P02671 36-629; P02675 45-491; P02679 27-437, crosslinked by factor XIIIa).
T2 construct: Coated human fibrinogen treated with thrombin and 0.55 ug factor XIIIa (Zedira) per well; also called crosslinked fibrin
T2 sequence (looked up) 1: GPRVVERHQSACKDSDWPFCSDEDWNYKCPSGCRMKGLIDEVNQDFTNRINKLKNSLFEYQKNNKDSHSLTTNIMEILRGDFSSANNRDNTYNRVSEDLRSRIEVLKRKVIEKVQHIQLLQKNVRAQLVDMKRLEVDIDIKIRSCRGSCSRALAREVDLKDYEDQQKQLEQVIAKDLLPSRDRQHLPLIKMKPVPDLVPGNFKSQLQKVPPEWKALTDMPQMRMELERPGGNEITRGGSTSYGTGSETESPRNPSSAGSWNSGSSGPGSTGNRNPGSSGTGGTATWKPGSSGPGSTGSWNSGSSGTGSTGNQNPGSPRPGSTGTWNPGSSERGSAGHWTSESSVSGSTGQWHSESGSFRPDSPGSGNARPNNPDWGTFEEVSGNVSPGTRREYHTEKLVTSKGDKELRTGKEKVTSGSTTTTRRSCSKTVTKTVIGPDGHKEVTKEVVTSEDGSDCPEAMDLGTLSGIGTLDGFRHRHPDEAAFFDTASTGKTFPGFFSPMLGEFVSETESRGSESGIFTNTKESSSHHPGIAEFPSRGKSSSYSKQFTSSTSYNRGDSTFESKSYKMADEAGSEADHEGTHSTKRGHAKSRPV
T2 sequence (looked up) 2: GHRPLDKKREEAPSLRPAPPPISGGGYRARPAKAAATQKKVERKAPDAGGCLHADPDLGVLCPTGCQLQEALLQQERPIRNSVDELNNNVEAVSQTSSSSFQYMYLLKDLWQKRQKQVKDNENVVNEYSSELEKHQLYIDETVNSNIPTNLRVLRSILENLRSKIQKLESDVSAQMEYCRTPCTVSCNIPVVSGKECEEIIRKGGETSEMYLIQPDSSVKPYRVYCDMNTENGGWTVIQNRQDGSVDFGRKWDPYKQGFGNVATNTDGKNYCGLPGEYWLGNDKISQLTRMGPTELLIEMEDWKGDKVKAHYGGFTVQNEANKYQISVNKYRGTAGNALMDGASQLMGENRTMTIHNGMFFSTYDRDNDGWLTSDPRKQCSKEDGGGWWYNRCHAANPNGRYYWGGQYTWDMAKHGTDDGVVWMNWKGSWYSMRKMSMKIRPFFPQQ
T2 sequence (looked up) 3: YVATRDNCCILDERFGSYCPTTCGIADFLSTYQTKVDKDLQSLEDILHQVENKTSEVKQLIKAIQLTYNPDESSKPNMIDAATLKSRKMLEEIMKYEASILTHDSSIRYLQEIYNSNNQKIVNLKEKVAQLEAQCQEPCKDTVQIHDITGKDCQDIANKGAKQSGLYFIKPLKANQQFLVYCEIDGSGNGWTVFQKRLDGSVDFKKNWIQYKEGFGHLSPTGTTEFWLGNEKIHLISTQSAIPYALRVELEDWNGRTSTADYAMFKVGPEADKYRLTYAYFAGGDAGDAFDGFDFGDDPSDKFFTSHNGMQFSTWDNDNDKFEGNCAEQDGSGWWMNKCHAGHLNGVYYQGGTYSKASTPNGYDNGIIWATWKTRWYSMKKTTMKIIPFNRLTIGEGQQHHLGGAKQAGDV
Described as above. Here is the method:
as §1, §2

B1: recombinant reteplase-(3D5 VL-218-VH scFv α fibrin) protein (other)
chain: SYQGNSDCYFGNGSAYRGTHSLTESGASCLPWNSMILIGKVYTAQNPSAQALGLGKHNYCRNPDGDAKPWCHVLKNRRLTWEYCDVPSCSTCGLRQYSQPQFRIKGGLFADIASHPWQAAIFAKHRRSPGERFLCGGILISSCWILSAAHCFQERFPPHHLTVILGRTYRVVPGEEEQKFEVEKYIVHKEFDDDTYDNDIALLQLKSDSSRCAQESSVVRTVCLPPADLQLPDWTECELSGYGKHEALSPFYSERLKEAHVRLYPSSRCTSQHLLNRTVTDNMLCAGDTRSGGPQANLHDACQGDSGGPLVCLNDGRMTLVGIISWGLGCGQKDVPGVYTKVTNYLDWIRDNMRPASGGGGSGGGGSGGGGSDIQMTQSPSSLSASVGDRVTITCRASQDVSNNVAWYQQKPGKAPKLLIFWSPWLYSGVPSRFSGSGSGTDFTLTISSLQPEDFATYYCQQGWDSPVTFGQGTKVEIKRGSTSGSGKPGSGEGSTKGEVQLVESGGGLVQPGGSLRLSCAASGFTISDFGIHWVRQAPGKGLEWVASIWPSGGYTYYADSVKGRFTISADTSKNTAYLQMNSLRAEDTAVYYCARSWFYSWYDYWGQGTLVTVSS
notes: Fusion: reteplase, flexible linker, 3D5 VL, 218 linker, 3D5 VH; also called reteplase-(3D5 scFv); reteplase-(3D5-scFv)
In the case of B1, the binding result in assay [1] and in assay [2] was “binds” in each case.
